Test results reported in patent US20160009770A1 (LAWRENCE BERKELEY NATIONAL LABORATORY, published 2016).
Side chains are listed from the residue outwards. Ends that are not written are not given here. dC16 = not defined here

Biological target: the molecule itself
Assay: UV-vis heme titration; reports an intact 4-helix bundle (self-association)

B1: dC16-BB-P2K conjugate 8 (designed binder)
peptide: dC16-GGGEIWKLHEEFLC([maleimide-PEG 2000 Da])KFEELLKLHEERLKKM
modifications: reading uncertain
notes: also called BB-dC16-P2K; H10H24-dC16-PEG2K
Question: Does B1 bind?
Answer: binds
